Article PMC8534003 (Cancers, 2021)
Where no end group is shown, it is not given here. The star is where a group is joined. Biotin = O=C1N[C@H]2[C@H](CS[C@H]2CCCCC(=O)*)N1

Molecular target: T1, human recombinant FGF-2 (human, UniProt P09038 143-288)
T1 construct: basic fibroblast growth factor (FGF-2), human recombinant; also called basic fibroblast growth factor; source: bought: R&D Systems
Assay: grating-coupled interferometry; Creoptix WAVEdelta, 4PCP-STA chip; biotinylated CXCL9(74-103) captured on streptavidin; FGF-2 as analyte 4.53 nM-1.10 µM in duplicate; 25 °C; PBS with 30 mM NaCl, 15 mM L-arginine, 0.015% Tween 20, 0.05 mg/mL BSA, pH 7.4; 1:1 binding model with bulk correction
Conditions: both partners purified

T1 sequence (P09038 143-288): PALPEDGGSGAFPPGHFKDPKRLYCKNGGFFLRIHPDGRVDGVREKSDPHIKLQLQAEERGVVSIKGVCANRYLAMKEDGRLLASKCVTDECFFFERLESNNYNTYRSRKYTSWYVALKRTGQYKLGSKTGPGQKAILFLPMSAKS

Kd: 100 nM
B1: biotinylated CXCL9(74-103) (peptide)
peptide: Biotin-KKKQKNGKKHQKKKVLKVRKSQRSRQKKTT
notes: Site-specifically biotinylated at the NH2-terminus with biotin-p-nitrophenyl ester; source: synthetic peptide (Fmoc solid-phase synthesis)
